Laboratory results taken from patent publication US20220235344A1, “TRYPSIN VARIANTS WITH IMPROVED ENZYMATIC PROPERTIES” (BIOPHARMA TRANSLATIONSINSTITUT DESSAU FORSCHUNGS GMBH, priority 2018, published 2022).

T1: H-RAHAK(DNP)-OH
T1 chain: RAHAK

B1: Trypsiligase II (trypsin variant Y39H/Y59H/K60E/D189K) (protein)
chain: IVGGYTCQENSVPYQVSLNSGHHFCGGSLINDQWVVSAAHCHESRIQVRLGEHNINVLEGNEQFVNAAKIIKHPNFDRKTLNNDIMLIKLSSPVKLNARVATVALPSSCAPAGTQCLISGWGNTLSSGVNEPDLLQCLDAPLLPQADCEASYPGKITDNMVCVGFLEGGKKSCQGDSGGPVVCNGELQGIVSWGYGCALPDNPGVYTKVCNYVDWIQDTIAAN
B2: A2C8: Trypsiligase II + H40F, A55A, R96E, K97D, L99F, N143E, E151Y, S190V, Q192A, S214G, G219Q, A221T (protein)
chain: IVGGYTCQENSVPYQVSLNSGHFFCGGSLINDQWVVSAAHCHESRIQVRLGEHNINVLEGNEQFVNAAKIIKHPNFDEDTFNNDIMLIKLSSPVKLNARVATVALPSSCAPAGTQCLISGWGETLSSGVNYPDLLQCLDAPLLPQADCEASYPGKITDNMVCVGFLEGGKKVCAGDSGGPVVCNGELQGIVGWGYQCTLPDNPGVYTKVCNYVDWIQDTIAAN

Key:
H-RAHAK(DNP)-OH = molecular target: T1, H-RAHAK(DNP)-OH
[1] = system: Bz-PGGYRAHAG-OH (acyl donor) / H-RAHAK(DNP)-OH (acyl acceptor); assay: Maximum product yield of transamidation (Table 7); assay type: biochemical; conditions: Zinc ions (100 μM): no; two equivalents of acyl acceptor and 250 μM acyl donor
Protocol: (§1) Model transamidation reactions were performed in a solution containing 15 to 250 μM acyl donor, 2 eq. of the corresponding acyl acceptor, varying concentrations of trypsin variant, 100 mM HEPES/NaOH pH 7.8, ±0.1 mM ZnC12, 100 mM NaCl, 10 mM CaCl2) at 30° C. Acyl donor and acyl acceptor had the same amino acids in P1′-P3′ position, e.g. Bz-[…]+H-RAHAK-OH or Bz-[…]+H-RKKAK-OH. Variations are indicated. The acyl acceptor could be equipped with a 2,4-Dinitrophenyl group (DNP) at the side chain of the terminal lysine, e.g. H-RAHAK(DNP)-OH or H-RKKAK(DNP)-OH. The reactions were started by the addition of enzyme. To record the time course of product formation and/or for kinetic evaluation of the reaction several aliquots of the reaction mixture were quenched with 25% (v/v) acetic acid at distinct time points within up to 4 hours. The composition of the reaction mixture was analyzed by UPCL with method I or II, depending on the absence (method 1) or presence (method II) of a 2,4-dinitrophenyl group within the acyl acceptor (see example 1). Measurements were performed as duplicates and errors were less than 5%.

[2] = system: H-RAHAK(DNP)-OH (acyl acceptor), acyl donor Bz-PGGYRAHAG-OH; assay: KM value of the nucleophilic peptide (acyl acceptor); assay type: biochemical; conditions: for Km: Zinc ions: no, 250 μM Bz-PGGYRAHAG-OH, varying H-RAHAK(DNP)-OH
Protocol: For Trypsiligase II the measurements for KM values of the nucleophilic peptide (acyl acceptor) were carried out in the presence or absence of zinc ions due to its strong zinc ion dependency. In case of variant A2C8 measurements were carried out in the absence of zinc ions.
Transamidation reactions with Trypsiligase II and variant A2C8 were performed in a solution containing 250 μM of the acyl donor Bz-[…]-OH, varying concentrations of the acyl acceptor H-RAHAK(DNP)-OH (0-5000 μM for Trypsiligase II in the absence of zinc ions, 0-1500 μM for Trypsiligase II in the presence of zinc ions, 0-1000 μM for variant A2C8), 0.2-1.5 μM trypsin variant, 100 mM HEPES/NaOH pH 7.8, ±0.1 mM ZnCl2, 100 mM NaCl, 10 mM CaCl2 at 30° C. The reaction was started by the addition of enzyme. For kinetic evaluation of the reaction several aliquots of the reaction mixture were quenched with 25% (v/v) acetic acid at distinct time points within 30 minutes. The composition of the reaction mixture was analyzed by UPCL using method II (see example 1). UV absorption of the 2,4-Dinitrophenyl group (DNP), which is present in the acyl acceptor as well as in the aminolysis product, was detected at 360 nm. To determine the KM value of the nucleophilic peptide the initial rates for the aminolysis reaction were plotted against the corresponding acyl acceptor concentration and fitted to the Michaelis Menten equation. Measurements were performed as duplicates and errors were less than 5%.

[3] = system: Bz-PGGYRAHAG-OH / RAHAK-OH (YRAH substrate); assay: Enzymatic activity and maximum product yield of Trypsiligase II-library variants, YRAH substrate; assay type: biochemical; conditions: for AS A[YRAH]/AS A + H[YRAH] / YRAH/YRKH, quotient of max. product yield for YRAH subtrate/YRKH substrate: Table 3; for Pmax vs YRAH (%): Table 3, first column group
Protocol: as §1
(§2) On the basis of these investigations the mutated positions of these two variants 2G10 and 1C11 have been combined in a new enzyme library based on trypsin variant Y39H/Y59H/K60E/D189K (Trypsiligase II), so that the variants resulting from this library benefit from both positive effects and are thus further optimized. Accordingly, positions 40, 55, 96, 97, 143, 151, 190, 192, 214, 219 and 221 were randomized in this Trypsiligase II library, while the mutation L99F was fixed because it was present in both Trypsiligase I libraries A and B. Positions 143 and 151 in Trypsiligase I are responsible for zinc complexation and thus convey histidine specificity for the recognition sequence YRH. In Trypsiligase II, this histidine specificity is shifted by positions 39 and 59, resulting in the recognition sequence YRAH. Thus, positions 143 and 151, which are potentially responsible for P2′ position specificity, are available for randomization in the Trypsiligase II library. In addition to the desired effect of increasing the affinity to the substrate/nucleophile, this could also lead to a possible independence of zinc complexation, which would be desirable with regard to the application-oriented modification of recombinant proteins. Using phage display and an ELISA-based screening, the Trypsiligase II variants illustrated in Table 3 and 4 have been identified.

[4] = system: Bz-PGGYRKHAG-OH / RKHAK-OH (YRKH substrate); assay: Enzymatic activity and maximum product yield of Trypsiligase II-library variants, YRKH substrate; assay type: biochemical; conditions: for PPmax vs YRAH (%): 100 μM Bz-PGGYR(A/K)HAG-OH, 200 μM R(A/K)HAK-OH, 100 μM ZnCl2, pH 7.8, 30° C.
Protocol: as §1, §2

[5] = 100 μM Bz-PGGYR(A/K)HAG-OH, 200 μM R(A/K)HAK-OH, 100 μM ZnCl2, pH 7.8, 30° C.
[6] = Table 3, group (YRAH), 100 μM ZnCl2

Molecule	product yield (%) [1]	Km [2]	AS A[YRAH]/AS A + H[YRAH] [3]	YRAH/YRKH, quotient of max. product yield for YRAH subtrate/YRKH substrate [3]	Pmax vs YRAH (%) [3, 5]	AS A/H, quotient of aminolysis/hydrolysis activity ([3]; Table 3, group (YRAH))	AS[AL] (mkat/mol), specific aminolysis activity [3, 6]	AS[HL] (mkat/mol), specific hydrolysis activity [3, 6]	AS A/H, quotient of aminolysis/hydrolysis activity ([4]; Table 3)	PPmax vs YRAH (%) ([4]; Table 3)	AS[AL] (mkat/moL), specific aminolysis activity ([4]; Table 3, 100 μM ZnCl2)	AS[HL] (mkat/moL), specific hydrolysis activity ([4]; Table 3, 100 μM ZnCl2)	also measured
B1	4.2%	1630 µM	0.1	6.0	8.9%	0.3	2.4 mkat/mol	7.8 mkat/mol	0.0	1.5%	0.5 mkat/moL	16.3 mkat/moL	KM, acyl acceptor (µM); zinc ions (100 µM): no; transamidation with 250 µM Bz-PGGYRAHAG-OH as acyl donor (H-RAHAK(DNP)-OH): 1630 µM; KM, acyl acceptor (µM); zinc ions (100 µM): yes; transamidation with 250 µM Bz-PGGYRAHAG-OH as acyl donor (H-RAHAK(DNP)-OH): 144 µM; fold increase of KM of the nucleophilic peptide without zinc ions against with zinc ions (H-RAHAK(DNP)-OH): increased by a factor of 11 to 1630 µM; AS A/H, quotient of aminolysis/hydrolysis activity ([3]; Table 4): 0.3; PPmax vs YRAH (%) ([3]; Table 4, 100 μM Bz-PGGYR(A/K)HAG-OH, 200 μM R(A/K)HAK-OH, 100 μM ZnCl2, pH 7.8, 30° C.): 8.9%; AS[AL] (mkat/moL), specific aminolysis activity ([3]; Table 4, 100 μM ZnCl2): 2.4 mkat/moL; AS[HL] (mkat/moL), specific hydrolysis activity ([3]; Table 4, 100 μM ZnCl2): 7.8 mkat/moL; AS A/H, quotient of aminolysis/hydrolysis activity ([4]; Table 4): 0.0; AS A[YRAH]/AS A + H[YRAH] ([4]; Table 4): 0.0; YRAH/YRKH, quotient of max. product yield ([4]; Table 4): 0.2; PPmax vs YRAH (%) ([4]; Table 4): 1.5%; AS[AL] (mkat/mol), specific aminolysis activity ([4]; Table 4, 100 μM ZnCl2): 0.5 mkat/mol; AS[HL] (mkat/mol), specific hydrolysis activity ([4]; Table 4, 100 μM ZnCl2): 16.3 mkat/mol
B2	59.7%	17.6 µM	1.6	1.0	53.1%	10.9	15.8 mkat/mol	1.5 mkat/mol	6.9	51.3%	8.9 mkat/moL	1.3 mkat/moL	improvement of the enzyme affinity for the nucleophilic peptide versus native Trypsiligase II (factor) ([2]; Trypsiligase II in the absence of zinc ions): 92; improvement of the enzyme affinity for the nucleophilic peptide versus native Trypsiligase II (factor) ([2]; Trypsiligase II in the presence of zinc ions): 8
